Measured values taken from the DeepSol protein solubility set.

Assay: soluble on expression in E. coli; label from the status in PepcDB or PDB records

| Sequence | soluble on expression in E. coli |
| --- | --- |
| MGSDKIHHHHHHMNIDAHNLNDLMYFSQVVEHGGFSAAERVLGISKSRLSRRLTELEAALGVRLLQRSTRKLALTEAGELFYQHCQAMLAEAQAAMNAVQQLRSSPRGSVRVSVPVTLSQTMLSRILPEFLHRYPEVKVHIRVTNRVIDLFEDSVDVALRVRSEPPQNANIVVRPLWRTEQMLVGAPSLLSQNAPPLVPDDLARFETLDTPSVDGRHVFNLIAPDGTRHLHEHDPRLVTADLMTIREAVLDGLGIAALPEMMYGNALRAGQLSPVMPGWTLPVPQLYAAFVSRQGMPPAVRAFVDYLVEKLDHGDYKQPSCPERDKKEAAAADVSST | not soluble |
| MGSDKIHHHHHHMNYLVISPFYPENFQPFTIELAKKEGVTVLGIGQEPYDQLPEELRNALTEYFRVEDLENIDEVKRAAAFLIYKHGPIDRVESHNEYWLENDAALREQFNIFGAKPKHLKKTKFKSEMKKYFKKAGVPVVPGVVVKSERDFGRALKNVGFPMIAKPDNGVGASGTFKIENKEDFDRFVETWDGATIYFLEKFVNSSIITTYDGLLDHEGNVVFETGLTYVHTPLELMLSRKDNAYFIEKELDPQLVKYGRAIIKAFGMRERFFHIEFFKDGDDYIAIEYNNRMAGGFTVEAYNYAHSIDLFRDYANVATGGTVEERRFEPQYCLVATRRDTTEYVHSADDIHQKFAGKIKTVKRMPDAFAELQGNDAYLLVTESKKELDEMIAYIGLTK | not soluble |
| MDKGLSRLVELLNARGASMEEMVRLLEEERASIVALQAERLQAAVEQKVQVAARMEALDGDCRRVIADEARVRGLGEATLSPLLAGNPSPEKTELAGLQTKLSTLAQEIKGMIADNRRLLETSMVTVGRSLAFFQSRLTVAETYGNSGSMVERSSGGILRKEI | not soluble |
| MGSDKIHHHHHHMTWKSVNFDWNHIRAFLVTAEEGTLSAAAKALGLTQPTLSRQVSALETELCITLFERVGQRLVLTSSGLKLLEHARGMGDAALEFSLAVTGQSQKIEGSVIVSAGELTAAYMLPKIISKLRREEPGIDIEVVVTNEASDLKRREADIAIRSFHPTQNDLIAKKIGEEVIWLYGTPEYLDQLPTIPSFSELKDIQIIGFDRSNSLTDVLNKQGWQLSKKNFSLITSFQLLQLALCKEGQGVIFYPEQMGDQEPNLVRAYEHLGPVMKLPVWLVCHQELRTSLRVRRVFDFIATELSDNFY | not soluble |
| MGSDKIHHHHHHMTQQVINSTSKNHLSPLENQKRYRVVLVHPSAGVNWSGGSEIFAIELARHLNSYFNVELLSGADCGSFSFPSGGISRTQAFNIVRHPLISKLLSRFASHPEIVIEHLSNFFPCAIQLLTKSADLIFPCNDYGGMAMAAFVRAIKGTPILFTEHVGLLGGGKSLTRNLRFHPDQLVVFSEAMAEFVRSVQPQQKVSIIPNGVDINRFTPVGNYINFGLPKPIVLCVASLKRHSHKRIGLAMEAVARLPQISLLLCGDGIDRDYFQAKGDELLGKERFKIQSFPYEQMPTVYRSADVFTLPSIDEPFGLAYVEAMASGLPVIATDDEMRRQIVGDAGRLCDVTNPDIYAAAIREILTQDWQVRARQKALGFSWENIALRYRELILKTIQGDQQNH | not soluble |
| MSNSITVRARGVNGQESVSLQVGGTTVQTWTLTTAMQDYTASTSLTGEIRVAFTNDATGRDVQVDYIVVNGQTRQAENQSVNTGVWANNQCGGSGNSEWLHCNGYISFGNVS | soluble |
| REIADNTYIVLGTMTLNDFNEYFETDLESDNVDTIAGFYLTGVGTIPSQEEKEHFEVESNGKHLELINDKVKDGRVTKLKILVSEVEEKEDEKD | not soluble |
| MGSDKIHHHHHHMAAKGKKKNFVLDTNVMLHDYECIEKFEENDIYIPIVSLEELDKFKKGSEQINFNARAFVRRLDEISDQDLFAKGASLGEGLGRIFVKINGQYHTKVKEAFGENKADHRILSIAMTLADEQPNIKTILVTKDVNLRMKARSLGMLVEDYINDKVTRVDLFENAEPEYEGVDGDLIDRIYASKDGIDIDEWELGSKIDPNDCFVMKSERNSVLARYNPFTGKIVRVEKGHYFGIQPRNAEQTFAMHILTDPNVKLIGLTGKAGTGKTLLALAAALSQEQSYKQILLARPIVSLANKDLGFLPGDEKAKVAPYMQPLFDNLNVIKGQLAQNSSELRRLDEMQKTEKLVIEALAYIRGRSVSETIFIVDEAQNLTPHEIKTIITRAGEGSKLIFTGDIEQIDSPYLDAQSNGLAYMIERMKGQPLFAHVNLIKGERSELSELASDLL | not soluble |
| MGHHHHHHSHMSFSKESSRLFGFVAGIKFPKMIQKVINENYVKYFNINMSEFKAPCEYESLNALFTRTLQIPRKFEEGFISPSDGKILECGSTFLANEEHFAFSIKGHAYSVEELLKDSFEKDELKNGLDYVNIYLSPKDYHRYHSPCDMQILSATYTSGVLYSVNEKHLERISNLYVKNERVSLKCQNEKGIFWLVFVGAQNVGKMRFNFDASIQTNAKISHNFTRKYENLNFKKGEELGNFELGSTIVLISQKGLLTFNLKVGQGIKFGEKIAD | soluble |
| MGSDKIHHHHHHMTQPFIPEQEYKRTDLHKQYGGNAQSGISNCANYPYIFIFSGVTGKQHGYKDGWENPNVFEYTGEGQMGDMSFTRGNLALRDHIDNGKQVFLFQYQRSGIVKYICELEFYDTDYFPTHDSSKQLRVGIRFFLKRKGAILPSVKELNQSTDFLAAESIPFYGIDSIKETSRKGEVNLRVGQGAYRKSIIHHWQYKCAVTGFDKLNLLNASHIHPWKDATDKERLDVNNGILLSPTYDALFDKHLISFENDGKIILSDTIHFSAYQKIGVTGKEKIKELNSNSILYIEKHRHLLLKY | not soluble |
| MAESVFAERIVQNLLDTDFYKLTMMQAVLHNYPNAEVEWEFRCRNAEDLRPYLAEIRYQIERLAEVEVTADQLAFLERIPFMKPDFIRFLSLFRFNLRYVHTGIEDGQLAIRLRGPWLHVILFEVPLLAIVSEVRNRYRYREVVLEQVGEQLYRKLDWLSAQASSEELAEFQVADFGTRRRFSYRTQEEVVHILKRDFPGRFVGTSNVHLAREYDLKPIGTMAHEWLMAHQQLGPRLVDSQQAALDCWVREYRGQLGIALTDCITMDAFLDDFDLYFAKLFDGLRHDSGDPLAWAEKAIAHYRRLGIDPLSKTLVFSDGLDMPKALQLFRALRGKINVSFGIGTNLTCDIPGVEPMNIVLKMTACNGHPVAKISDAPGKTQCRDENFVAYLRHVFNVPA | not soluble |
| SASHIVGYPRMGPKRELKFALESFWDGKSSAEDLEKVATDLRASIWKQMADAGIKYIPSNTFSYYDQVLDTTAMLGAVPGRYSWTGGEIGFSTYFSMARGNATVPAMEMTKWFDTNYHFIVPELGPNTKFSYSSHKAVNEYKEAKALGVDTVPVLVGPVSYLLLSKPAKGVEKSFALLSLLSSILPVYKEVIAELKAAGATWIQFDEPTLVLDLDSHQLAAFSAAYTELESALSGLNVLIETYFADIPAESYKTLTSLNSVTAYGFDLIRGSKTLDLVKSAGFPSGKYLFAGVVDGRNIWADDLAASLTTLESLEAIVGKDKLVVSTSCSLMHTAVDLVNETKLDSEIKSWLAFAAQKVVEVNALAKALAGQKDEAYFAANTAAQASRRSSPRVTNEEVQKAAAALRGSDHRRATNVSARLDAQQKKLNLPVLPTTTIGSFPQTVELRRVRREYKAKKISEDEYVSAIKEEISKVVKIQEELDIDVLVHGEPERNDMVEYFGEQLSGFAFTANGWVQSYGSRCVKPPIIYGDVSRPNAMTVFWSKMAQSMTSRPMKGMLTGPVTILNWSFVRNDQPRFETCYQIALAIKKEVEDLEAGGIQVIQIDEAALREGLPLRKAEHAFYLDWAVHSFRITNCGVQDTTQIHTHMCYSNFNDIIHSIINMDADVITIENSRSDEKLLSVFREGVKYGAGIGPGVYDIHSPRIPSTEEIADRINKMLAVLDTNILWVNPDCGLKTRKYTEVKPALTNMVLAAKLIRTQLASAK | soluble |
| MAKKNNKTKIQKPEAALQTDVAQITATGRVIAEHPSNFITPQKMRALFEDAESGDIRAQHELFADIEERDSDIAANMGTRKRALLTLNWRVAPPRNATPEEEKLSDQAYEMMDSLPTLEDLIMDLMDAVGHGFSALEVEWVFSDGLYLPRNFIHRPQSWFKWDKDNGLLLRTRENPEGEALWPLGWVVHTQKSRSVQQARNGLFRTLSWLYMFKHYAVHDFAEFLELYGMPIRIGKYGAGATKEEKNTLLRAVAEIGHNAAGIMPEGMEIELHNAANGTTATSNPFLQMADWCEKSAARLILGQTLTSGADGKSSTNALGNIHNEVRRDLLVSDAKQVAQTITSQIIGPFLQINYPHADPNRVPKFEFDTREPKDIAVFADAIPKLVDVGVQIPESWVRDKLVIPDVQEGEAVLVRQVPDNPVNRTALAALSAHTVPSKATGRHQEILDGALDDALVEPDFNSQLNPMVRQAVAALNACNSYEEADAALNALYPNLDNAKLRTYMQQALFISDILGQDHA | soluble |
| MVIPALNEAPTVAKVVEAVLADNPLEVLVIDADSTDATAAEARSAGATVLNWREILDTEPIPGKGESLWRGVAAARGDIVVFVDADLTSFRPGMVNSLVAPFLNDDIHLVKADYVRTFGDHTTGGGRVTELTAKPLLRALFPELSHIRQPLGGEYAIRRSTALAMPFVSGYGVEVGLLIDVATQFGTSSIAQVDLGSRSHNHQSLEALGSMADVVATTILQRFGHDLPVVQREPLGIHLEHHHHHH | not soluble |
| MTRHLAGSFASPPGAEAEGGPVRVTALRAQAFHIPTDLPEADGTFAWNATTLVLVEVEAGGQTGIGYTYSDASIVRLIHHTLAACVIDADAWQVGALWLRMQRQVRNPGRAGLAATAISAVDCALWDLKAKLLGVPLVTLLGAQRANVPIYGSGGFTTYTDEQLREQLVRWVAQDGCRWVKMKIGTHPQEDPQRVAAARAAIGDAGLFVDANGAFSVKEALHYARAFAEQGVEWFEEPVSSDDLRGLALLRERAPARMEIAAGEYAYTLDDFRLLLEAHAVDVLQADVSRCGGVTGFLQAAALCEAFHVPLSAHCAPALHLHVASAVRNLRHQEWFHDHVRIEAMLFDGAPRPSNGAIAPDMARPGCGLAFRHGDAQRYLIH | soluble |
| MSLKHVVVIGAVALGPKAACRFKRLDPEAHVTMIDQASRISYGGCGIPYYVSGEVSNIESLQATPYNVVRDPEFFRINKDVEALVETRAHAIDRAAHTVEIENLRTGERRTLKYDKLVLALGSKANRPPVEGMDLAGVTPVTNLDEAEFVQHAISAGEVSKAVIVGGGFIGLEMAVSLADMWGIDTTVVELADQIMPGFTSKSLSQMLRHDLEKNDVVVHTGEKVVRLEGENGKVARVITDKRTLDADLVILAAGVSPNTQLARDAGLELDPRGAIIVDTRMRTSDPDIFAGGDCVTIPNLVTGKPGFFPLGSMANRQGRVIGTNLADGDATFPGAVGSWAVKLFEGSASGAGLTVEGALREGYDAVNVHVEQFDRAHFYPEKTIMTLQLVVDRPTRRVLGIQGFSTLGDALTARINAVATMLASKPTVEDISNAEVVYSPPFASAMDIVNVAGNVADNVLAGRCRLVGTEEFVQLWEGRKDADICFVDTRLAANAVPLVEKYGDEWINIPEEELAARIDEIPRDKTVMLVCNTGLRSFESQLILDRLGLTNTKSVAGGMVAIHKIGGDEGHHHHHH | soluble |
| MKLKIVFFGASLAGKSTTVRKLYEILKEKGLVKGEFMSIDTDEKRTLFVEMFLSKIPIDGQEIDFKILTTPGQFRLHPLRKAIMQGVDGLVFTVDSQTGREEINFLVLRETAHVLKDSTWIYTQYPSLFSTTREIFPTHFPLEHHHHHH | not soluble |
| MGNESTPLRTITQALKLARPGTVIQLTPGNYSVETGETFPLMLKPGVSIQGNTSNKGQEVKIQGGGLFLSRSFGGQNVAIVGANQAGLTGVTITNPNPRGYGLWIESSNPVISENTFTGNTQDGISVTGNSATTITKNYFYRNGANGITIGGNSPAQVRENLFEETGFGINVAQNAVPMLVSNQIQNNRSGIIVQANARPILRNNLIQGSKEDGVVAIAQAMPDLGNATEAGGNEFRNNARHDINASAAKQAIAAVGNILDTKRITGKVALEHHHHHH | not soluble |
| MLEKIYSVLGTGSCLVKDGEIIESYLLSDEEVKLIEKIAKVIPFLPEKFKVGFFEHEGGRIIAIKHGEVFICFPARSDNVMSELRKVEVEVYDKILSP | not soluble |
